{
  "source": "paper PMC3185932",
  "about": "“A truncated form of CD9-partner 1 (CD9P-1), GS-168AT2, potently inhibits in vivo tumour-induced angiogenesis and tumour growth” (British Journal of Cancer, 2011)",
  "proteins": {"B1": {"name": "GS-168AT2, truncated form of CD9 partner-1 (CD9P-1), amino acid 724-832 (domain or fragment, human, UniProt Q9P2B2 724-832, looked up)", "chain": "DMAFDVSWFAVHSFGLDKAPVLLSSLDRKGIVTTSRRDWKSDLSLERVSVLEFLLQVHGSEDQDFGNYYCSVTPWVKSPTGSWQKEAEIHSKPVFITVKMDVLNAFKYP", "notes": "CD9 partner-1 (CD9P-1/FPRP/EWI-F), human, amino acid 724-832: the unglycosylated extracellular portion next to the transmembrane domain; cDNA from RNA of human endothelial cells; no removal of the tag is described. pET-30 EK/LIC is known to add His and S tags at the N-terminus (surmised); also called truncated CD9P-1; source: E. coli BL21(DE3)pLys, purified from the insoluble fraction in urea …"}},
  "target": "the molecule itself",
  "experiment": "SDS-PAGE (Coomassie blue) and Western blot of the purified protein; purified GS-168AT2; 36 kDa band seen by Coomassie blue and recognised by 229T mAb",
  "data": [
    {"protein": "B1", "values": [
      {"measurement": "binding result", "value": "binds"}
    ]}
  ]
}
